{"source": "patent US20090252681A1", "about": "(Ablynx, published 2009)", "key": {"[1]": {"biological_target": "T1, cell surface expressed EGFR (human, UniProt P00533 25-1210)", "T1 construct": "whole, on cells; also called EGFR on A431 tumor cells; EGFR on HER14 cells"}, "[2]": {"biological_target": "T2, EGFR on A431 derived membrane vesicles (human, UniProt P00533 25-1210)", "T2 construct": "whole, on cells; presented in membrane vesicles coated on ELISA plates, not on intact cells; also called EGFR harboring A431 vesicles; EGFR expressing A431 vesicles"}, "purified EGFR (Sigma)": {"biological_target": "T3, purified EGFR (Sigma) (human, UniProt P00533 25-1210, limits assumed)", "T3 construct": "native receptor purified from A431 cells; also called solid phase coated EGFR"}, "Recombinant human IGF-IR": {"biological_target": "T4, Recombinant human IGF-IR (human, UniProt P08069 31-932)", "T4 construct": "bought; also called rhIGFIR; rhIGF-IR", "test": "SPR (BIAcore), immobilized IGF-IR"}}, "data": [{"binder": "PMP9C1 (VHH) VHH: EVQLVESGGGLVQAGGSLRLSCAASGRTFSGFAMGWFRQAPGKEREFVAAISWSGGSLLYVDSVKGRFTISRDNAKNTVHLQMNSLKPGDTAVYYCAAMVGPPPRSLDYGLGNHYEYDYWGQGTQVTVSS", "values": [{"measurement": "binding result", "setting": "[1]", "value": "binds"}, {"measurement": "binding result", "setting": "[2]", "value": "binds"}]}, {"binder": "PMP8C7 (VHH, also called EGR PMP8C7) VHH: QVKLEESGGGLVQAGGSLRLSCAASGRAFSSYVMGWFRQAPGKEREIVGAISWRGGSTYYADSVKGRFTISRDNAKNTVYLQMNSLKPEDTAVYYCAAVYRVGAISEYSGTDYYTDEYDYWGQGTQVTVSS", "values": [{"measurement": "binding result", "setting": "[2]", "value": "binds"}]}, {"binder": "27-10-E8 (VHH, anti-EGFR Nanobody; tested as periplasmic extract or IMAC purified soluble Nanobody, tag not described; also called EGR 27-10-E8) VHH: EVQLVESGGGLVQAGGSLRLSCAASGRTFSTYTMAWFRQAPGKEREFVQGISRSDGGTYDADSVKGRFTISRDNAKNTVYLQMNSLKPEDTAVYFCAAASVKLVYVNPNRYSYWGQGTQVTVSS", "values": [{"measurement": "koff", "setting": "purified EGFR (Sigma)", "value": 0.0017, "unit": "s⁻¹"}, {"measurement": "IC50 (read off the curve)", "setting": "[2]", "value": "~0.9", "unit": "nM"}]}, {"binder": "PMP1C7 (VHH, anti-IGF-IR Nanobody; tag not described; also called IGR PMP1C7) VHH: QVKLEESGGGLVQAGGSLRLSCVASGRTFSRTAMAWFRQAPGKEREFVATITWNSGTTRYADSVKGRFFISKDSAKNTIYLEMNSLEPEDTAVYYCAATAAAVITPTRGYYNYWGQGTQVTVSS", "values": [{"measurement": "koff", "setting": "Recombinant human IGF-IR", "value": 0.0019, "unit": "s⁻¹"}]}, {"binder": "PMP7A5 (VHH) VHH: EVQLVESGGGLVQAGGSLRLSCAASDRTFSSNNMGWFRQAPGKEREFVAAIGWGGLETHYSDSVKGRFTISRDNAKNTVYLQMNSLKPEDTARYYCAVSSTRTVIYTLPRMYNYWGQGTQVTVSS", "values": [{"measurement": "koff", "setting": "purified EGFR (Sigma)", "value": 0.0015, "unit": "s⁻¹"}]}, {"binder": "PMP7E12 (VHH) VHH: EVQLVESGGGLVQAGGSLRLSCTASGRTFENNAMAWFRQAAGKEREFVAGFSGSGGATYYAHSVEGRFTISRDNAKNTVDLQMNSLSLEDTAVYLCAARRKSGEVVFTIPARYDYWGQGTQVTVSS", "values": [{"measurement": "koff", "setting": "purified EGFR (Sigma)", "value": 0.0015, "unit": "s⁻¹"}]}, {"binder": "PMP38G7 (VHH, also called EGR PMP38G7) VHH: EVQLVESGGGLVQAGGSLRLSCAASGRTFSSYVMGWFRQATGKEREFVATIAWDSGSTYYADSVKGRFTISRDNAKNTVHLQMNSLKPEDTAVYYCAASYNVYYNNYYYPISRDEYDYWGQGTQVTVSS", "values": [{"measurement": "koff", "setting": "purified EGFR (Sigma)", "value": 0.00017, "unit": "s⁻¹"}]}, {"binder": "27-1-H7 (VHH) VHH: EVQLVESGGGLVQAGGSLRLSCAASGRGAWAWFRQAPGKEREFVGGLSWSADSTYYADSVKGRFTISRDNAKNTVFLQMTNLKADDTAVYYCAAHRRPFASVFTTTRMYDYWGPGTQVTVSS", "values": [{"measurement": "koff", "setting": "purified EGFR (Sigma)", "value": 0.0031, "unit": "s⁻¹"}]}]}
